{"source": "patent US20260258117A1", "about": "(ACADEMISCH ZIEKENHUIS LEIDEN H O D N LUMC, published 2026)", "binders": {"B1": {"name": "Anti-DNP K409R LALAPG (antibody, human IgG1, kappa, L234A L235A, V domains shown)", "VH": "DVRLQESGPGLVKPSQSLSLTCSVTGYSITNSYYWNWIRQFPGNKLEWMVYIGYDGSNNYNPSLKNRISITRDTSKNQFFLKLNSVTTEDTATYYCARATYYGNYRGFAYWGQGTLVTVSA", "VL": "DIRMTQTTSSLSASLGDRVTISCRASQDISNYLNWYQQKPDGTVKLLIYYTSRLHSGVPSRFSGSGSGTDYSLTISNLEQEDIATYFCQQGNTLPWTFGGGTKLEIKR", "notes": "also called anti-DNP parental Ab; parental monospecific antibody"}, "B2": {"name": "Anti-HIV F405L LALAPG, Anti-DNP K409R LALAPG (bispecific antibody, human IgG1, kappa, L234A L235A)", "heavy 1": "QVQLVQSGAEVKKPGASVKVSCQASGYRFSNFVIHWVRQAPGQRFEWMGWINPYNGNKEFSAKFQDRVTFTADTSANTAYMELRSLRSADTAVYYCARVGPYSWDDSPQDNYYMDVWGKGTTVIVSSASTKGPSVFPLAPSSKSTSGGTAALGCLVKDYFPEPVTVSWNSGALTSGVHTFPAVLQSSGLYSLSSVVTVPSSSLGTQTYICNVNHKPSNTKVDKRVEPKSCDKTHTCPPCPAPEAAGGPSVFLFPPKPKDTLMISRTPEVTCVVVDVSHEDPEVKFNWYVDGVEVHNAKTKPREEQYNSTYRVVSVLTVLHQDWLNGKEYKCKVSNKALGAPIEKTISKAKGQPREPQVYTLPPSREEMTKNQVSLTCLVKGFYPSDIAVEWESNGQPENNYKTTPPVLDSDGSFLLYSKLTVDKSRWQQGNVFSCSVMHEALHNHYTQKSLSLSPGK", "light 1": "EIVLTQSPGTLSLSPGERATFSCRSSHSIRSRRVAWYQHKPGQAPRLVIHGVSNRASGISDRFSGSGSGTDFTLTITRVEPEDFALYYCQVYGASSYTFGQGTKLERKRTVAAPSVFIFPPSDEQLKSGTASVVCLLNNFYPREAKVQWKVDNALQSGNSQESVTEQDSKDSTYSLSSTLTLSKADYEKHKVYACEVTHQGLSSPVTKSFNRGEC", "heavy 2": "DVRLQESGPGLVKPSQSLSLTCSVTGYSITNSYYWNWIRQFPGNKLEWMVYIGYDGSNNYNPSLKNRISITRDTSKNQFFLKLNSVTTEDTATYYCARATYYGNYRGFAYWGQGTLVTVSAASTKGPSVFPLAPSSKSTSGGTAALGCLVKDYFPEPVTVSWNSGALTSGVHTFPAVLQSSGLYSLSSVVTVPSSSLGTQTYICNVNHKPSNTKVDKRVEPKSCDKTHTCPPCPAPEAAGGPSVFLFPPKPKDTLMISRTPEVTCVVVDVSHEDPEVKFNWYVDGVEVHNAKTKPREEQYNSTYRVVSVLTVLHQDWLNGKEYKCKVSNKALGAPIEKTISKAKGQPREPQVYTLPPSREEMTKNQVSLTCLVKGFYPSDIAVEWESNGQPENNYKTTPPVLDSDGSFFLYSRLTVDKSRWQQGNVFSCSVMHEALHNHYTQKSLSLSPGK", "light 2": "DIRMTQTTSSLSASLGDRVTISCRASQDISNYLNWYQQKPDGTVKLLIYYTSRLHSGVPSRFSGSGSGTDYSLTISNLEQEDIATYFCQQGNTLPWTFGGGTKLEIKRTVAAPSVFIFPPSDEQLKSGTASVVCLLNNFYPREAKVQWKVDNALQSGNSQESVTEQDSKDSTYSLSSTLTLSKADYEKHKVYACEVTHQGLSSPVTKSFNRGEC", "notes": "also called anti-HIV x anti-DNP"}}, "key": {"C4b-binding protein [1]": {"molecular_target": "T1, C4b-binding protein (human, UniProt P04003 49-597; P20851 18-252)", "T1 construct": "also called C4BP", "T1 sequence (looked up) 1": "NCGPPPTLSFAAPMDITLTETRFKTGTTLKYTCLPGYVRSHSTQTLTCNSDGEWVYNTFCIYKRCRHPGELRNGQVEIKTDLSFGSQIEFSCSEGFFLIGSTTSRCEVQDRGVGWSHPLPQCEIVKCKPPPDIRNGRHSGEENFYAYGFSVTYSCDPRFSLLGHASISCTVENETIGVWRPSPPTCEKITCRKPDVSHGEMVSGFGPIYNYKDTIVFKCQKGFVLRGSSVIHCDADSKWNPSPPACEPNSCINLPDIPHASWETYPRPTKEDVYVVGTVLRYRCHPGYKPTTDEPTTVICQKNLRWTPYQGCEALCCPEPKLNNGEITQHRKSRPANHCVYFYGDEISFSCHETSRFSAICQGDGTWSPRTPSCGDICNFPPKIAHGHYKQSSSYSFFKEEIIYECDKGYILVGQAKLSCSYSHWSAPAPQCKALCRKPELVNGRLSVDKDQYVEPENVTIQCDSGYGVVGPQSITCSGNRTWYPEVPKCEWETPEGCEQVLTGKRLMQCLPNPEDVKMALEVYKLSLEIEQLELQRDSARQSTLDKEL", "T1 sequence (looked up) 2": "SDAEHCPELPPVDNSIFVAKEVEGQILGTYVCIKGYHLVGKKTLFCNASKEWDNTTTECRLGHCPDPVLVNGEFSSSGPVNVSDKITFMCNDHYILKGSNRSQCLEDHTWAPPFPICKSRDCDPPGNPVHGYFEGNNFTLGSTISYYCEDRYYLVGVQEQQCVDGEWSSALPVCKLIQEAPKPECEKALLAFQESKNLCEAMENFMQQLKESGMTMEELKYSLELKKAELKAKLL", "test": "bispecific ELISA: BSA-DNP coat, antibody, then C4BP, C4BP detected", "procedure": "(§1) BsAbs were tested for binding to both antigens in a bispecific ELISA. MaxiSorp plates (Thermo Scientific, Nunc, 430341) were coated with 50 μL/well BSA-DNP (10 μg/mL, Biosearch Technologies, D-5050-10, conjugation ration 13) in coating buffer (0.1 M Na₂CO₃/NaHCO₃PH 9.6) for 1 hour at 37° C. After every incubation, plates were washed three times with PBS/0.05% Tween 20. Plates were blocked with 100 μL/well PBS/1% BSA for 1 hour at 37° C. After washing, plates were incubated with 50 μL/well (bs) Abs diluted in PBS/0.05% Tween 20/1% BSA (PTB buffer) for 1 hour at 37° C. Next, 1 μg/mL FH (CompTech, A137) or C4BP (CompTech, A109) diluted in PTB buffer was added. FH was detected using goat anti-human FH (Quidel, A312) and HRP-labeled rabbit anti-goat Ig (Dako, P0449), and C4BP was detected using rabbit anti-human C4BP (kind gift from Anna M. Blom, Malmö, Sweden) and HRP-labeled goat anti-rabbit Ig (Dako, P0448), all diluted in PTB buffer. Plates were developed by incubating with 50 μL/well ABTS (Merck, A1888-5G) containing 1:2000 diluted H₂O₂ (Merck, 1072090250), and read at 415 nm using a microplate reader (BIO-RAD iMark). It was confirmed by ELISA that the bsAbs can bind to a specific target (e.g., DNP as a model antigen) as well as FH or C4BP, whereas the parental monospecific antibodies cannot (FIG. 1A)."}, "[2]": {"molecular_target": "T2, Complement Factor H protein (human, UniProt P08603 19-1231)", "T2 construct": "Plasma protein, bought purified or present in normal human serum; also called FH; CFH", "T2 sequence (P08603 19-1231 limits assumed)": "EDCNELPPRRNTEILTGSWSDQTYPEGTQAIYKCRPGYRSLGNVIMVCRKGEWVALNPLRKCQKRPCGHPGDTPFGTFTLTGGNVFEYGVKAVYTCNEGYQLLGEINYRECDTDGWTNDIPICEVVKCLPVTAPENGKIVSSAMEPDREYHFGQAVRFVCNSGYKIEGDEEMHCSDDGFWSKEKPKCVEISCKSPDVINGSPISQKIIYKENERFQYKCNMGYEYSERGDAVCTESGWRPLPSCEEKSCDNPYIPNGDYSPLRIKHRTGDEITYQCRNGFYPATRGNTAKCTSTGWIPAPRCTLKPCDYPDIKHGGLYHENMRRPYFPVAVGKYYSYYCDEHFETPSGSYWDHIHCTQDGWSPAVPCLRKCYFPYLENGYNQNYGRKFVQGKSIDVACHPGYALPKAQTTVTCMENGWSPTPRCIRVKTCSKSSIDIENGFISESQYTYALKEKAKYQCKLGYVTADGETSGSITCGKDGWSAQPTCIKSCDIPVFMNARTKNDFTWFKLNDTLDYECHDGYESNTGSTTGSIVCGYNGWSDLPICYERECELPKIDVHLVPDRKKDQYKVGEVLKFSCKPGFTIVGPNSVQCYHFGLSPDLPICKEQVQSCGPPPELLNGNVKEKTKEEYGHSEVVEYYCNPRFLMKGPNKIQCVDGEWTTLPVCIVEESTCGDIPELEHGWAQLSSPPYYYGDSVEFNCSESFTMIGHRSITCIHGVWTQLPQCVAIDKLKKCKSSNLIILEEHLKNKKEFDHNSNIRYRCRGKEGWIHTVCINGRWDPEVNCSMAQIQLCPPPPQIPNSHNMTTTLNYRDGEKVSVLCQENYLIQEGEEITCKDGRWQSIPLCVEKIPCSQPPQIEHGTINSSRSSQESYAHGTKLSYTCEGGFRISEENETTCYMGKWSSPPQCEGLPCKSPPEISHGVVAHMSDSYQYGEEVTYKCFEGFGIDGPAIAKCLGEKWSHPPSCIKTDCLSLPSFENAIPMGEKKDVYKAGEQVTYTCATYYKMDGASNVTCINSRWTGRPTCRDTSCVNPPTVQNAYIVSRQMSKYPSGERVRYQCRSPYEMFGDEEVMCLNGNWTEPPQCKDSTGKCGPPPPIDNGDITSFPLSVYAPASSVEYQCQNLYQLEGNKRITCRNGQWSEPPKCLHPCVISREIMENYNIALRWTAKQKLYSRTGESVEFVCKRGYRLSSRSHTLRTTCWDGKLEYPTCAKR", "test": "bispecific ELISA: BSA-DNP coat, antibody, then FH, FH detected", "procedure": "as §1"}, "C4b-binding protein [3]": {"molecular_target": "T1, C4b-binding protein", "test": "plate-bound complement activation assay: BSA-DNP coat, bsAb with normal human serum, C4BP detected", "procedure": "(§2) BsAbs were functionally tested in plate-bound complement activation assays. To focus on the classical pathway, MaxiSorp plates were coated with 50 μL/well of a mixture of IgG (10 μg/mL, IVIg, Sanquin) or IgM (1 μg/mL, Merck, 401799) and BSA-DNP (10 μg/mL) or biotinylated BSA-DNP (10 μg/mL, biotinylated in-house) in coating buffer for 1 hour at 37° C. After every incubation, plates were washed three times with PBS/0.05% Tween 20. Plates were blocked with 100 μL/well PBS/1% BSA for 1 hour at 37° C. Samples containing 5 μg/mL (or a titration from 0.1 to 10 μg/mL) bsAbs, 10 μg/mL FH or C4BP, and 1% normal human serum (NHS) in RPMI were preincubated for 30 minutes at 4° C. After washing, plates were incubated with 50 μL/well samples for 1 hour at 37° C. Next, FH and C4BP were detected as described above for the bispecificity ELISA (using goat anti-human FH and HRP-labeled rabbit anti-goat Ig, or using rabbit anti-human C4BP and HRP-labeled goat anti-rabbit Ig), and C5b-9 was detected using mouse anti-human C5b-9 (Dako, M0777) and HRP-labeled goat anti-mouse Ig (Dako, P0447), all diluted in PTB buffer. Plates were developed by incubating with 50 μL/well ABTS containing 1:2000 diluted H₂O₂, and read at 415 nm using a microplate reader."}, "[4]": {"molecular_target": "T2, Complement Factor H protein", "test": "plate-bound complement activation assay: BSA-DNP coat, bsAb with normal human serum, FH detected", "procedure": "as §2, with “reader. […]” for “reader.”"}}, "data": [{"binder": "B1", "values": [{"measurement": "binding result", "setting": "C4b-binding protein [1]", "value": "no binding (tested: 1 µg/mL C4BP)"}, {"measurement": "binding result", "setting": "[2]", "value": "no binding (tested: 1 µg/mL FH)"}]}, {"binder": "B2", "values": [{"measurement": "binding result", "setting": "C4b-binding protein [3]", "value": "no binding"}, {"measurement": "binding result", "setting": "[4]", "value": "no binding"}]}]}
